According to the supplement of paper PMC10567573:

B1: ADAMTS4 (parent)
chain: SFRKFRYGYNNVVTIPAGATHILV

Variants of: B1
Experiment: protein stability index of a GFP-peptide fusion (GPS, HEK-293T) (PSI 1-6); higher = more stable
Settings: c terminus: a fixed tail appended
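Further: lentivirally expressed fusions sorted by FACS into six bins by GFP to DsRed ratio, PSI derived from sequencing read proportions per bin multiplied by bin number.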

Row | Variant | protein stability index
1 | N10K | 1.81
2 | N10F | 2.9
3 | N10R | 2.36
4 | N10D | 3.41
5 | N10Q | 1.94
6 | N10Y | 2.02
7 | N10P | 1.86
8 | N10L | 4.32
9 | N10E | 1.56
10 | N10M | 2.49
11 | N10T | 2.18
12 | N10C | 2.65
13 | N10V | 1.81
14 | N10I | 3.13
15 | N10S | 1.99
16 | N10G | 1.34
17 | N10H | 1.84
18 | N10W | 1.6
19 | F2Q | 2.91
20 | F2T | 1.62
21 | F2R | 2.18
22 | F2V | 1.99
23 | F2C | 3.07
24 | F2Y | 1.8

Row | Variant | protein stability index
25 | F2G | 2.97
26 | F2S | 2.19
27 | F2H | 1.68
28 | F2M | 2.96
29 | F2A | 1.94
30 | F2K | 1.9
31 | F2N | 1.76
32 | F2L | 1.75
33 | F2I | 2.03
34 | F2P | 2.15
35 | F2E | 1.79
36 | F2D | 2.13
37 | F2W | 2.38
38 | G18M | 1.54
39 | G18E | 2.63
40 | G18A | 1.72
41 | G18H | 1.71
42 | G18S | 2.58
43 | G18F | 2.3
44 | G18Y | 1.64
45 | G18W | 1.9
46 | G18R | 1.85
47 | G18I | 1.62
48 | G18K | 2.41

Row | Variant | protein stability index
49 | G18D | 2.71
50 | G18P | 2.06
51 | G18N | 1.27
52 | G18L | 2
53 | G18Q | 2.88
54 | G18V | 1.63
55 | G18C | 1.73
56 | G18T | 2.71
57 | G8Y | 1.51
58 | G8T | 2.71
59 | G8P | 2.38
60 | G8W | 3.33
61 | G8V | 2.24
62 | G8F | 2.48
63 | G8D | 2.5
64 | G8K | 2.4
65 | G8I | 4.84
66 | G8L | 2.38
67 | G8H | 3.15
68 | G8N | 3.3
69 | G8A | 2.21
70 | G8M | 2.79
71 | G8Q | 2.77
72 | G8S | 3.58

Row | Variant | protein stability index
73 | G8R | 2.96
74 | G8C | 2.46
75 | G8E | 2.1
76 | R6S | 2.95
77 | R6H | 2.76
78 | R6Y | 2.15
79 | R6G | 2.57
80 | R6M | 3.49
81 | R6W | 2.86
82 | R6A | 1.91
83 | R6D | 2.22
84 | R6V | 2.5
85 | R6N | 2.5
86 | R6C | 4.22
87 | R6K | 3
88 | R6Q | 3.44
89 | R6P | 3.56
90 | R6T | 2.37
91 | R6L | 3.25
92 | R6F | 3.68
93 | R6I | 2.3
94 | A17H | 1.78
95 | A17Q | 1.33
96 | A17Y | 1.6

Row | Variant | protein stability index
97 | A17F | 1.96
98 | A17T | 1.97
99 | A17D | 1.64
100 | A17V | 1.24
101 | A17E | 1.61
102 | A17W | 2.46
103 | A17N | 1.78
104 | A17S | 1.78
105 | A17K | 1.57
106 | A17L | 2.31
107 | A17C | 2.36
108 | A17G | 1.95
109 | A17I | 1.86
110 | A17M | 1.51
111 | A17P | 1.98
112 | A17R | 2
113 | S1T | 1.61
114 | S1P | 2.22
115 | S1N | 2
116 | S1R | 2.79
117 | S1Q | 2.67
118 | S1V | 2.17
119 | S1M | 2.99
120 | S1Y | 2.22

Row | Variant | protein stability index
121 | I15R | 1.44
122 | I15W | 1.86
123 | I15F | 1.55
124 | I15C | 2.03
125 | I15E | 2.16
126 | I15D | 2.35
127 | I15K | 2.41
128 | I15Q | 1.4
129 | I15A | 2.17
130 | I15S | 2.48
131 | I15P | 1.52
132 | I15V | 1.5
133 | I15T | 2.26
134 | I15Y | 2.11
135 | I15L | 2.3
136 | I15N | 1.57
137 | I15M | 2.28
138 | I15G | 1.4
139 | I15H | 2.01
140 | A19H | 1.96
141 | A19E | 3.97
142 | A19F | 3.91
143 | A19K | 3
144 | A19N | 2.17

Row | Variant | protein stability index
145 | A19C | 2.13
146 | A19D | 3.22
147 | A19G | 1.22
148 | A19P | 2.17
149 | A19Q | 1.88
150 | A19L | 3.23
151 | R3D | 1.61
152 | R3V | 2.99
153 | R3W | 2.24
154 | R3T | 1.6
155 | R3C | 3.97
156 | R3S | 2.58
157 | R3E | 2.13
158 | R3N | 2.89
159 | R3I | 3.31
160 | R3G | 2.75
161 | R3Q | 2.14
162 | R3A | 2.45
163 | R3K | 3.1
164 | R3L | 3.11
165 | R3Y | 2.37
166 | R3F | 3.06
167 | R3M | 1.83
